Experimental data as given in paper PMC6778109.

Target: Edc3 IDR
Test: methyl TROSY NMR titration

Substance	other: chemical shift perturbation Δδ of the introduced methyl group (+ 6x Edc3 IDR) [ppm]	other: chemical shift perturbation Δδ of the introduced methyl group (+ 4x Edc3 IDR) [ppm]
Edc3 YjeF_N domain (from UniProt O94752) K392M	0.087	
Edc3 YjeF_N domain (from UniProt O94752) Q447I	0.078	
Edc3 YjeF_N domain (from UniProt O94752) V253I		0.391
Edc3 YjeF_N domain (from UniProt O94752) W393M		0.104
